Results from US20030118612A1 (MAXYGEN, published 2003).

B1: G-CSF variant K16/34/40R T133K conjugated to SPA-PEG 5000 (ligand)
chain: TPLGPASSLPQSFLLRCLEQVRKIQGDGAALQERLCATYRLCHPEELVLLGHSLGIPWAPLSSCPSQALQLAGCLSQLHSGLFLYQGLLQALEGISPELGPTLDTLQLDVADFATTIWQQMEELGMAPALQPKQGAMPAFASAFQRRAGGVLVASHLQSFLEVSYRVLRHLAQP
modifications: SPA-PEG 5000 conjugated to the available PEGylation sites
B2: G-CSF variant K16/34/40R Q134K, non-conjugated (ligand)
chain: TPLGPASSLPQSFLLRCLEQVRKIQGDGAALQERLCATYRLCHPEELVLLGHSLGIPWAPLSSCPSQALQLAGCLSQLHSGLFLYQGLLQALEGISPELGPTLDTLQLDVADFATTIWQQMEELGMAPALQPTKGAMPAFASAFQRRAGGVLVASHLQSFLEVSYRVLRHLAQP
B3: G-CSF variant K16/34/40R S155K conjugated to SPA-PEG 5000 (ligand)
chain: TPLGPASSLPQSFLLRCLEQVRKIQGDGAALQERLCATYRLCHPEELVLLGHSLGIPWAPLSSCPSQALQLAGCLSQLHSGLFLYQGLLQALEGISPELGPTLDTLQLDVADFATTIWQQMEELGMAPALQPTQGAMPAFASAFQRRAGGVLVAKHLQSFLEVSYRVLRHLAQP
modifications: SPA-PEG 5000 conjugated to the available PEGylation sites
B4: G-CSF variant K16/34/40R Q90K Q120K, non-conjugated (ligand)
chain: TPLGPASSLPQSFLLRCLEQVRKIQGDGAALQERLCATYRLCHPEELVLLGHSLGIPWAPLSSCPSQALQLAGCLSQLHSGLFLYQGLLKALEGISPELGPTLDTLQLDVADFATTIWQKMEELGMAPALQPTQGAMPAFASAFQRRAGGVLVASHLQSFLEVSYRVLRHLAQP
B5: G-CSF variant 16Q, non-conjugated (ligand)
chain: TPLGPASSLPQSFLLQCLEQVRKIQGDGAALQEKLCATYKLCHPEELVLLGHSLGIPWAPLSSCPSQALQLAGCLSQLHSGLFLYQGLLQALEGISPELGPTLDTLQLDVADFATTIWQQMEELGMAPALQPTQGAMPAFASAFQRRAGGVLVASHLQSFLEVSYRVLRHLAQP
B6: G-CSF variant K16/34/40R Q90K T105K, non-conjugated (ligand)
chain: TPLGPASSLPQSFLLRCLEQVRKIQGDGAALQERLCATYRLCHPEELVLLGHSLGIPWAPLSSCPSQALQLAGCLSQLHSGLFLYQGLLKALEGISPELGPTLDKLQLDVADFATTIWQQMEELGMAPALQPTQGAMPAFASAFQRRAGGVLVASHLQSFLEVSYRVLRHLAQP
B7: G-CSF variant K16/34/40R Q134K conjugated to SPA-PEG 5000 (ligand)
chain: TPLGPASSLPQSFLLRCLEQVRKIQGDGAALQERLCATYRLCHPEELVLLGHSLGIPWAPLSSCPSQALQLAGCLSQLHSGLFLYQGLLQALEGISPELGPTLDTLQLDVADFATTIWQQMEELGMAPALQPTKGAMPAFASAFQRRAGGVLVASHLQSFLEVSYRVLRHLAQP
modifications: SPA-PEG 5000 conjugated to the available PEGylation sites
B8: G-CSF variant K16/34/40R S155K, non-conjugated (ligand)
chain: TPLGPASSLPQSFLLRCLEQVRKIQGDGAALQERLCATYRLCHPEELVLLGHSLGIPWAPLSSCPSQALQLAGCLSQLHSGLFLYQGLLQALEGISPELGPTLDTLQLDVADFATTIWQQMEELGMAPALQPTQGAMPAFASAFQRRAGGVLVAKHLQSFLEVSYRVLRHLAQP
B9: G-CSF variant K16/34/40R S159K conjugated to SPA-PEG 5000 (ligand)
chain: TPLGPASSLPQSFLLRCLEQVRKIQGDGAALQERLCATYRLCHPEELVLLGHSLGIPWAPLSSCPSQALQLAGCLSQLHSGLFLYQGLLQALEGISPELGPTLDTLQLDVADFATTIWQQMEELGMAPALQPTQGAMPAFASAFQRRAGGVLVASHLQKFLEVSYRVLRHLAQP
modifications: SPA-PEG 5000 conjugated to the available PEGylation sites
B10: G-CSF variant K16/34/40R Q70K Q120K, non-conjugated (ligand)
chain: TPLGPASSLPQSFLLRCLEQVRKIQGDGAALQERLCATYRLCHPEELVLLGHSLGIPWAPLSSCPSQALKLAGCLSQLHSGLFLYQGLLQALEGISPELGPTLDTLQLDVADFATTIWQKMEELGMAPALQPTQGAMPAFASAFQRRAGGVLVASHLQSFLEVSYRVLRHLAQP
B11: G-CSF variant K16/34/40R Q90K T105K conjugated to SPA-PEG 5000 (ligand)
chain: TPLGPASSLPQSFLLRCLEQVRKIQGDGAALQERLCATYRLCHPEELVLLGHSLGIPWAPLSSCPSQALQLAGCLSQLHSGLFLYQGLLKALEGISPELGPTLDKLQLDVADFATTIWQQMEELGMAPALQPTQGAMPAFASAFQRRAGGVLVASHLQSFLEVSYRVLRHLAQP
modifications: SPA-PEG 5000 conjugated to the available PEGylation sites
B12: G-CSF variant K16/34/40R R147K, non-conjugated (ligand)
chain: TPLGPASSLPQSFLLRCLEQVRKIQGDGAALQERLCATYRLCHPEELVLLGHSLGIPWAPLSSCPSQALQLAGCLSQLHSGLFLYQGLLQALEGISPELGPTLDTLQLDVADFATTIWQQMEELGMAPALQPTQGAMPAFASAFQRKAGGVLVASHLQSFLEVSYRVLRHLAQP
B13: G-CSF variant K16/34/40R S159K, non-conjugated (ligand)
chain: TPLGPASSLPQSFLLRCLEQVRKIQGDGAALQERLCATYRLCHPEELVLLGHSLGIPWAPLSSCPSQALQLAGCLSQLHSGLFLYQGLLQALEGISPELGPTLDTLQLDVADFATTIWQQMEELGMAPALQPTQGAMPAFASAFQRRAGGVLVASHLQKFLEVSYRVLRHLAQP
B14: G-CSF variant K16/34/40R S142K, non-conjugated (ligand)
chain: TPLGPASSLPQSFLLRCLEQVRKIQGDGAALQERLCATYRLCHPEELVLLGHSLGIPWAPLSSCPSQALQLAGCLSQLHSGLFLYQGLLQALEGISPELGPTLDTLQLDVADFATTIWQQMEELGMAPALQPTQGAMPAFAKAFQRRAGGVLVASHLQSFLEVSYRVLRHLAQP
B15: G-CSF variant K16/34/40R Q90K S159K, non-conjugated (ligand)
chain: TPLGPASSLPQSFLLRCLEQVRKIQGDGAALQERLCATYRLCHPEELVLLGHSLGIPWAPLSSCPSQALQLAGCLSQLHSGLFLYQGLLKALEGISPELGPTLDTLQLDVADFATTIWQQMEELGMAPALQPTQGAMPAFASAFQRRAGGVLVASHLQKFLEVSYRVLRHLAQP
B16: G-CSF variant K16/34/40R Q158 conjugated to SPA-PEG 5000 (ligand)
chain: TPLGPASSLPQSFLLRCLEQVRKIQGDGAALQERLCATYRLCHPEELVLLGHSLGIPWAPLSSCPSQALQLAGCLSQLHSGLFLYQGLLQALEGISPELGPTLDTLQLDVADFATTIWQQMEELGMAPALQPTQGAMPAFASAFQRRAGGVLVASHLKSFLEVSYRVLRHLAQP
modifications: SPA-PEG 5000 conjugated to the available PEGylation sites
B17: G-CSF variant 16Q conjugated to SPA-PEG 5000 (ligand)
chain: TPLGPASSLPQSFLLQCLEQVRKIQGDGAALQEKLCATYKLCHPEELVLLGHSLGIPWAPLSSCPSQALQLAGCLSQLHSGLFLYQGLLQALEGISPELGPTLDTLQLDVADFATTIWQQMEELGMAPALQPTQGAMPAFASAFQRRAGGVLVASHLQSFLEVSYRVLRHLAQP
modifications: SPA-PEG 5000 conjugated to the available PEGylation sites
B18: G-CSF variant K16/34/40R S142K conjugated to SPA-PEG 5000 (ligand)
chain: TPLGPASSLPQSFLLRCLEQVRKIQGDGAALQERLCATYRLCHPEELVLLGHSLGIPWAPLSSCPSQALQLAGCLSQLHSGLFLYQGLLQALEGISPELGPTLDTLQLDVADFATTIWQQMEELGMAPALQPTQGAMPAFAKAFQRRAGGVLVASHLQSFLEVSYRVLRHLAQP
modifications: SPA-PEG 5000 conjugated to the available PEGylation sites
B19: G-CSF variant K16/34/40R Q70K Q120K conjugated to SPA-PEG 5000 (ligand)
chain: TPLGPASSLPQSFLLRCLEQVRKIQGDGAALQERLCATYRLCHPEELVLLGHSLGIPWAPLSSCPSQALKLAGCLSQLHSGLFLYQGLLQALEGISPELGPTLDTLQLDVADFATTIWQKMEELGMAPALQPTQGAMPAFASAFQRRAGGVLVASHLQSFLEVSYRVLRHLAQP
modifications: SPA-PEG 5000 conjugated to the available PEGylation sites
B20: G-CSF variant K16/34/40R Q158, non-conjugated (ligand)
chain: TPLGPASSLPQSFLLRCLEQVRKIQGDGAALQERLCATYRLCHPEELVLLGHSLGIPWAPLSSCPSQALQLAGCLSQLHSGLFLYQGLLQALEGISPELGPTLDTLQLDVADFATTIWQQMEELGMAPALQPTQGAMPAFASAFQRRAGGVLVASHLKSFLEVSYRVLRHLAQP
B21: G-CSF variant K16/34/40R Q70K Q90K conjugated to SPA-PEG 5000 (ligand)
chain: TPLGPASSLPQSFLLRCLEQVRKIQGDGAALQERLCATYRLCHPEELVLLGHSLGIPWAPLSSCPSQALKLAGCLSQLHSGLFLYQGLLKALEGISPELGPTLDTLQLDVADFATTIWQQMEELGMAPALQPTQGAMPAFASAFQRRAGGVLVASHLQSFLEVSYRVLRHLAQP
modifications: SPA-PEG 5000 conjugated to the available PEGylation sites
B22: G-CSF variant K16/34/40R Q90K Q120K conjugated to SPA-PEG 5000 (ligand)
chain: TPLGPASSLPQSFLLRCLEQVRKIQGDGAALQERLCATYRLCHPEELVLLGHSLGIPWAPLSSCPSQALQLAGCLSQLHSGLFLYQGLLKALEGISPELGPTLDTLQLDVADFATTIWQKMEELGMAPALQPTQGAMPAFASAFQRRAGGVLVASHLQSFLEVSYRVLRHLAQP
modifications: SPA-PEG 5000 conjugated to the available PEGylation sites
B23: G-CSF variant K16/34/40R R147K conjugated to SPA-PEG 5000 (ligand)
chain: TPLGPASSLPQSFLLRCLEQVRKIQGDGAALQERLCATYRLCHPEELVLLGHSLGIPWAPLSSCPSQALQLAGCLSQLHSGLFLYQGLLQALEGISPELGPTLDTLQLDVADFATTIWQQMEELGMAPALQPTQGAMPAFASAFQRKAGGVLVASHLQSFLEVSYRVLRHLAQP
modifications: SPA-PEG 5000 conjugated to the available PEGylation sites

Target: T1, human G-CSF receptor (human, UniProt Q99062 25-836)
T1 sequence (looked up): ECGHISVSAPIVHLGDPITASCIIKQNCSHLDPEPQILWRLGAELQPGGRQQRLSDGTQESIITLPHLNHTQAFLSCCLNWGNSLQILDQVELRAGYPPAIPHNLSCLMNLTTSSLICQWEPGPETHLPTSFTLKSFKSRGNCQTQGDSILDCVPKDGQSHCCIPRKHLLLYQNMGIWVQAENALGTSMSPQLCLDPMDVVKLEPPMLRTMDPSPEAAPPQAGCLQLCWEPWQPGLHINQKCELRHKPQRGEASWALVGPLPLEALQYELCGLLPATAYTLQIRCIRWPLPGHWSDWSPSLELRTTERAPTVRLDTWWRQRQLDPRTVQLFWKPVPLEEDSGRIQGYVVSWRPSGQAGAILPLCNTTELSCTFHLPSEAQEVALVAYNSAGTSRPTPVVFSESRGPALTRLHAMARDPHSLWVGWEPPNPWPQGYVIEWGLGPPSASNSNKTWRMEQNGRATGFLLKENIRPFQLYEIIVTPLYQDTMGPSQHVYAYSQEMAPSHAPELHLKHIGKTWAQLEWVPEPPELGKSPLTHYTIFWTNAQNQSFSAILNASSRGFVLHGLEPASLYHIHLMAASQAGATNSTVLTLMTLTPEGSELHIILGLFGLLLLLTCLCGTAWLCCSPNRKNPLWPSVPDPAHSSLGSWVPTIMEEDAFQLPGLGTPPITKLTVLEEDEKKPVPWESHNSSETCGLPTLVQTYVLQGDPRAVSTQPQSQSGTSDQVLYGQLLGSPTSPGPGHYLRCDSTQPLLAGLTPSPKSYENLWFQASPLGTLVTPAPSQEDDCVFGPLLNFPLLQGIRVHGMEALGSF
Assay: cell-based or functional assay

Binder	EC50 (% of hG-CSF) conjugated to SPA-PEG 5000	EC50 (% of hG-CSF) non-conjugated
B1	10 % of hG-CSF	
B2		10 % of hG-CSF
B3	1 % of hG-CSF	
B4		25 % of hG-CSF
B5		80 % of hG-CSF
B6		40 % of hG-CSF
B7	0.2 % of hG-CSF	
B8		20 % of hG-CSF
B9	3 % of hG-CSF	
B10		25 % of hG-CSF
B11	10 % of hG-CSF	
B12		20 % of hG-CSF
B13		20 % of hG-CSF
B14		20 % of hG-CSF
B15		45 % of hG-CSF
B16	5 % of hG-CSF	
B17	1 % of hG-CSF	
B18	7 % of hG-CSF	
B19	25 % of hG-CSF	
B20		20 % of hG-CSF
B21	20 % of hG-CSF	
B22	15 % of hG-CSF	
B23	1 % of hG-CSF	
